Reference: patent US20250188166A1 (BRIGHT PEAK THERAPEUTICS, published 2025)
“And” between values parts separate entries of the source, which are not always exact repeats. Equal entries are not always repeated.

T1: IL-18R on HEK-Blue IL18R reporter cells (UniProt Q13478 19-541; O95256 20-599)
T1 sequence (looked up) 1: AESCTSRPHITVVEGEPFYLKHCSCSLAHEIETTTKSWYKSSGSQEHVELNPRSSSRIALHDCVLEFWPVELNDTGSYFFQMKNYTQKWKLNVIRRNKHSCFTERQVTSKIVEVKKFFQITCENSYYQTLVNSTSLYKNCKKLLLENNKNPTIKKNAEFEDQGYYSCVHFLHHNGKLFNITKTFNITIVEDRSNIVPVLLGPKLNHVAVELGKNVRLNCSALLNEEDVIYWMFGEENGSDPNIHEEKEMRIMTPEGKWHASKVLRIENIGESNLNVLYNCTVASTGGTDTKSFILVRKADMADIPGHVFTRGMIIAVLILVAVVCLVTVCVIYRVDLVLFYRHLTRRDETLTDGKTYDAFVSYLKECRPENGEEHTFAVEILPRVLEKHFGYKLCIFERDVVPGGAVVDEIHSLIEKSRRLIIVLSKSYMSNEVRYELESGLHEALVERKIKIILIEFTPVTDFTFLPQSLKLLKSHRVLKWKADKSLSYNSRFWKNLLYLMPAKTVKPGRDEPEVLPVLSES
T1 sequence (looked up) 2: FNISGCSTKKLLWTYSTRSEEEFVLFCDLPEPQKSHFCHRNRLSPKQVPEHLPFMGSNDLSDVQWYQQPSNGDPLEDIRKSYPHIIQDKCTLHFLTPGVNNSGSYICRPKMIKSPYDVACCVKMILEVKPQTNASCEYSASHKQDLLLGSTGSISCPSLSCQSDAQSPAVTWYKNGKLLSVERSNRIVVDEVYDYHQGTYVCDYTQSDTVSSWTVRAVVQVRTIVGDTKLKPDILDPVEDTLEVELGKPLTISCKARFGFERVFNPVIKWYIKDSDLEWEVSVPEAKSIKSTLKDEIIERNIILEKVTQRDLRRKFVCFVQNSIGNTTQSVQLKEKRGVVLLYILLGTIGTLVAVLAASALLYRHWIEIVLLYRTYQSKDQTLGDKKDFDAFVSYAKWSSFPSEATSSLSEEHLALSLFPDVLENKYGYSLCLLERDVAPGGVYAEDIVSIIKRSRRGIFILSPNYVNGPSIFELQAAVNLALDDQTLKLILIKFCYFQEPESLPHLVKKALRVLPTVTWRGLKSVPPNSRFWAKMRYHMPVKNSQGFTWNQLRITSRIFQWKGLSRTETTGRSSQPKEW


Molecular target: T1, IL-18R on HEK-Blue IL18R reporter cells
Test: cell-based or functional assay

EC50, HEK-Blue IL18R SEAP reporter | Binder
1.91 pM | IL-18 polypeptide C165 (ligand) YFGKLESKLSIIRNLNDQVLFIDQGNRPLFEDMTDSDARDNAPRTIFIISMYKDRQPRGMAVTISVKCEKISTLSAENKIISFKEMNPPDNIKDTKSDIIFFQRSVPGHDNKMQFESSSYEGYFLAAEKERDLFKLILKKEDELGDRSIMFTVQNED
1.77 pM | IL-18 polypeptide SEQ ID NO: 50 (E06K, K53A, T63A) (ligand) YFGKLKSKLSVIRNLNDQVLFIDQGNRPLFEDMTDSDCRDNAPRTIFIISMYADSQPRGMAVAISVKCEKISTLSCENKIISFKEMNPPDNIKDTKSDIIFFQRSVPGHDNKMQFESSSYEGYFLACEKERDLFKLILKKEDELGDRSIMFTVQNED
0.79 pM | IL-18 polypeptide SEQ ID NO: 42 (E06K, K53A, S55A, T63A) (ligand) YFGKLKSKLSVIRNLNDQVLFIDQGNRPLFEDMTDSDCRDNAPRTIFIISMYADAQPRGMAVAISVKCEKISTLSCENKIISFKEMNPPDNIKDTKSDIIFFQRSVPGHDNKMQFESSSYEGYFLACEKERDLFKLILKKEDELGDRSIMFTVQNED
5.37 pM | IL-18 polypeptide C167 (ligand) YFGKLESKLSIIRNLNDQVLFIDQGNRPLFEDMTDSDARDNAPRTIFIISMYKDSQPRGMAVTISVKCEKISTLSAENKIISFKEMNPPDNIKDTKSDIIFFQRIVPGHDNKMQFESSSYEGYFLAAEKERDLFKLILKKEDELGDRSIMFTVQNED
0.04 pM | IL-18 polypeptide C184 (ligand) YFGKLRSKLSIIRNLNDQVLFIDQGNRPLFEDMTDSDARDNAPRTIFIISMYADSQPRGMAVAISVKCEKISTLSAENKIISFKEMNPPDNIKDTKSDIIFFQRSVPGHDNKMQFESSSYEGYFLAAEKERDLFKLILKKEDELGDRSIMFTVQNED
3.73 pM | IL-18 polypeptide SEQ ID NO: 56 (E6K, K53A, C38S, C76S, C127S) (ligand) YFGKLKSKLSVIRNLNDQVLFIDQGNRPLFEDMTDSDSRDNAPRTIFIISMYADSQPRGMAVTISVKCEKISTLSSENKIISFKEMNPPDNIKDTKSDIIFFQRSVPGHDNKMQFESSSYEGYFLASEKERDLFKLILKKEDELGDRSIMFTVQNED
0.04 pM | IL-18 polypeptide C177 (ligand) YFGKLKSKLSIIRNLNDQVLFIDQGNRPLFEDMTDSDARDNAPRTIFIRSMYADSQPRGMAVAISVKCEKISTLSAENKIISFKEMNPPDNIKDTKSDIIFFQRSVPGHDNKMQFESSSYEGYFLAAEKERDLFKLILKKEDELGDRSIMFTVQNED
9.12 pM | IL-18 polypeptide SEQ ID NO: 54 (E06K, K53A, C38S, C68S, C76S, C127S, K70C) (ligand) YFGKLKSKLSVIRNLNDQVLFIDQGNRPLFEDMTDSDSRDNAPRTIFIISMYADSQPRGMAVTISVKSECISTLSSENKIISFKEMNPPDNIKDTKSDIIFFQRSVPGHDNKMQFESSSYEGYFLASEKERDLFKLILKKEDELGDRSIMFTVQNED
0.1 pM | IL-18 polypeptide C181 (ligand) YFGKLKSKLSIIRNLNDQVLFIDQGNRPLFEDMTDSDARDNAPRTIFIISMYADSQPRGMAVAISVKCEKISTLSAENKIISFKEMNPPDNIKDTKSDIIFFQRSVPGHDNKMQFESSSYEGYFLAAEKERDLFKLILKKEDELGDRSIMFTEQNED
0.26 pM | IL-18 polypeptide C178 (ligand) YFGKLKSKLSIIRNLNDQVLFIDQGNRPLFEDMTDSDARDNAPRTIFIISMYADSQPRGMAVAISVKCEKISTLSAENKIISFKEMNPPDNIKDTKSDIIFFRRSVPGHDNKMQFESSSYEGYFLAAEKERDLFKLILKKEDELGDRSIMFTVQNED
0.86 pM and 0.53 pM | IL-18 polypeptide SEQ ID NO: 57 (E6K, C38S, K53A) (ligand) YFGKLKSKLSVIRNLNDQVLFIDQGNRPLFEDMTDSDSRDNAPRTIFIISMYADSQPRGMAVTISVKCEKISTLSCENKIISFKEMNPPDNIKDTKSDIIFFQRSVPGHDNKMQFESSSYEGYFLACEKERDLFKLILKKEDELGDRSIMFTVQNED
0.17 pM | IL-18 polypeptide SEQ ID NO: 62 (E6K, C38A, K53A, C127A) (ligand) YFGKLKSKLSVIRNLNDQVLFIDQGNRPLFEDMTDSDARDNAPRTIFIISMYADSQPRGMAVTISVKCEKISTLSCENKIISFKEMNPPDNIKDTKSDIIFFQRSVPGHDNKMQFESSSYEGYFLAAEKERDLFKLILKKEDELGDRSIMFTVQNED
0.1 pM | IL-18 polypeptide C183 (SEQ ID NO: 69) (ligand) YFGKLKSKLSIIRNLNDQVLFIDQGNRPLFEDMTDSDARDNAPRTIFIISGYADSQPRGMAVAISVKCEKISTLSAENKIISFKEMNPPDNIKDTKSDIIFFQRSVPGHDNKMQFESSSYEGYFLAAEKERDLFKLILKKEDELGDRSIMFTVQNED
0.4 pM | IL-18 polypeptide C179 (ligand) YFGKLKSELSIIRNLNDQVLFIDQGNRPLFEDMTDSDARDNAPRTIFIISMYADSQPRGMAVAISVKCEKISTLSAENKIISFKEMNPPDNIKDTKSDIIFFRRSVPGHDNKMQFESSSYEGYFLAAEKERDLFKLILKKEDELGDRSIMFTVQNED
272 pM | IL-18 polypeptide SEQ ID NO: 34 (E06K, K53A, S55A) (ligand) YFGKLKSKLSVIRNLNDQVLFIDQGNRPLFEDMTDSDCRDNAPRTIFIISMYADAQPRGMAVTISVKCEKISTLSCENKIISFKEMNPPDNIKDTKSDIIFFQRSVPGHDNKMQFESSSYEGYFLACEKERDLFKLILKKEDELGDRSIMFTVQNED
4.73 pM | IL-18 polypeptide C166 (ligand) YFGKLESKLSIIRNLNDQVLFIDQGNRPLFEDMTDSDARDNAPRTIFIISMYKDTQPRGMAVTISVKCEKISTLSAENKIISFKEMNPPDNIKDTKSDIIFFQRSVPGHDNKMQFESSSYEGYFLAAEKERDLFKLILKKEDELGDRSIMFTVQNED
7.73 pM | IL-18 polypeptide C168 (ligand) YFGKLESKLSIIRNLNDQVLFIDQGNRPLFEDMTDSDARDNAPRTIFIISMYKDSQPRGMAVTISVKCEKISTLSAENKIISFKEMNPPDNIKDTKSDIIFFQRKVPGHDNKMQFESSSYEGYFLAAEKERDLFKLILKKEDELGDRSIMFTVQNED
0.203 pM | IL-18 polypeptide SEQ ID NO: 60 (E6K, C38Q, K53A) (ligand) YFGKLKSKLSVIRNLNDQVLFIDQGNRPLFEDMTDSDQRDNAPRTIFIISMYADSQPRGMAVTISVKCEKISTLSCENKIISFKEMNPPDNIKDTKSDIIFFQRSVPGHDNKMQFESSSYEGYFLACEKERDLFKLILKKEDELGDRSIMFTVQNED
0.07 pM | IL-18 polypeptide C176 (ligand) YFGKLKSKLSIIRNLNDQVLFIDQGNRPLFEDMTDSDARDNAPRTIFIMSMYADSQPRGMAVAISVKCEKISTLSAENKIISFKEMNPPDNIKDTKSDIIFFQRSVPGHDNKMQFESSSYEGYFLAAEKERDLFKLILKKEDELGDRSIMFTVQNED
0.08 pM | IL-18 polypeptide C182 (ligand) YFGKLKSKLSIIRNLNDQVLFIDQGNRPLFEDMTDSDARDNAPRTIFIISMYADSQPRGMAVAISVKCEKISTLSAENKIISFKEMNPPDNIKDTKSDIIFFQRSVPGHDNKMQFESSSYEGYFLAAEKERDLFKLILKKEDELGDRSIMFTYQNED
0.29 pM | IL-18 polypeptide C174 (ligand) YFGKLKSLLSIIRNLNDQVLFIDQGNRPLFEDMTDSDARDNAPRTIFIISMYADSQPRGMAVAISVKCEKISTLSAENKIISFKEMNPPDNIKDTKSDIIFFQRSVPGHDNKMQFESSSYEGYFLAAEKERDLFKLILKKEDELGDRSIMFTVQNED
0.268 pM | IL-18 polypeptide SEQ ID NO: 59 (E6K, C38A, K53A) (ligand) YFGKLKSKLSVIRNLNDQVLFIDQGNRPLFEDMTDSDARDNAPRTIFIISMYADSQPRGMAVTISVKCEKISTLSCENKIISFKEMNPPDNIKDTKSDIIFFQRSVPGHDNKMQFESSSYEGYFLACEKERDLFKLILKKEDELGDRSIMFTVQNED
2.5 pM | IL-18 polypeptide C140 (SEQ ID NO: 72) (ligand) GGGGYFGKLKSKLSIIRNLNDQVLFIDQGNRPLFEDMTDSDARDNAPRTIFIISMYADSQPRGMAVAISVKCEKISTLSAENKIISFKEMNPPDNIKDTKSDIIFFQRSVPGHDNKMQFESSSYEGYFLAAEKERDLFKLILKKEDELGDRSIMFTVQNED
